# Tests used:
# [1] = molecular target: T1, Mer (Mus musculus, UniProt Q60805); experiment: Gas6-stimulated TAM receptor activation (phosphotyrosine IP-immunoblot) in BMDMs, Mer; format: cell-based; conditions: WT-BMDMs pre-treated 30 min, stimulated with 10 nM Gas6 for 10 min; FIG. 4B
# Experimental: Immunoprecipitation and immunoblot analysis was conducted as described above.
# [2] = test system: EbGP-pseudotyped virus; format: cell-based, mouse; conditions: 300 nM, 24 h post-infection, FIG. 4C
# [3] = molecular target: Axl (Mus musculus, UniProt Q00993); format: cell-based
# [4] = molecular target: T1, Mer; format: cell-based; conditions: WT-BMDCs
# [5] = test system: DENV; conditions: Axl-expressing HEK293 cells; concentration approximately 7-fold higher than 100 nM; Meertens et al. (2012); cited from earlier work
# [6] = test system: Axl; format: cell-based, mouse; conditions: 100 nM, BMDCs; FIG. 5B
# Sequence of Axl (Q00993 19-888): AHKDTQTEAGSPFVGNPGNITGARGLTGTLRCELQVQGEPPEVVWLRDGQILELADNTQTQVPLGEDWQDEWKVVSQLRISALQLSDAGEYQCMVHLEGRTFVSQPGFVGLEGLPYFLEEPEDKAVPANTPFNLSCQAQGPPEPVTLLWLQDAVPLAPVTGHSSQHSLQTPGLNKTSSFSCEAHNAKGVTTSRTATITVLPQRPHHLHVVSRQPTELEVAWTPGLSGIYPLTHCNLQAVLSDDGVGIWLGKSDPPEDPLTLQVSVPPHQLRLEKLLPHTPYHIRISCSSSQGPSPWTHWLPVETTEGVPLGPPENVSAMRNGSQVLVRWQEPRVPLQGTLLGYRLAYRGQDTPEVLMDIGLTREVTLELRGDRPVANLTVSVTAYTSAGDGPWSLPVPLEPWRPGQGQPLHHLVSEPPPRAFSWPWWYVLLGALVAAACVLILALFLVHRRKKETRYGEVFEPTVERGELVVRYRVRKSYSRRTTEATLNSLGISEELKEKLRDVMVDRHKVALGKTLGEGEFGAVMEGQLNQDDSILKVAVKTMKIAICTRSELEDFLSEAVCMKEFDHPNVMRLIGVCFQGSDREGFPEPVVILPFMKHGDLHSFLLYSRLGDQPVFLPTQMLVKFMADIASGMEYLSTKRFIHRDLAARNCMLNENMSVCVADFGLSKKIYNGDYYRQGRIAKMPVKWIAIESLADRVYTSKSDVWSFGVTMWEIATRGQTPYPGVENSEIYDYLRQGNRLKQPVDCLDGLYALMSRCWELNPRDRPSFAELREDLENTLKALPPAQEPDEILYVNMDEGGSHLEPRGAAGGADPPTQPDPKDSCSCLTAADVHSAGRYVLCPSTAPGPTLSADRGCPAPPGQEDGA
# Sequence of Axl (Mus musculus, UniProt Q00993) (Q00993 19-888): as above
# T1 sequence (Q60805 19-994): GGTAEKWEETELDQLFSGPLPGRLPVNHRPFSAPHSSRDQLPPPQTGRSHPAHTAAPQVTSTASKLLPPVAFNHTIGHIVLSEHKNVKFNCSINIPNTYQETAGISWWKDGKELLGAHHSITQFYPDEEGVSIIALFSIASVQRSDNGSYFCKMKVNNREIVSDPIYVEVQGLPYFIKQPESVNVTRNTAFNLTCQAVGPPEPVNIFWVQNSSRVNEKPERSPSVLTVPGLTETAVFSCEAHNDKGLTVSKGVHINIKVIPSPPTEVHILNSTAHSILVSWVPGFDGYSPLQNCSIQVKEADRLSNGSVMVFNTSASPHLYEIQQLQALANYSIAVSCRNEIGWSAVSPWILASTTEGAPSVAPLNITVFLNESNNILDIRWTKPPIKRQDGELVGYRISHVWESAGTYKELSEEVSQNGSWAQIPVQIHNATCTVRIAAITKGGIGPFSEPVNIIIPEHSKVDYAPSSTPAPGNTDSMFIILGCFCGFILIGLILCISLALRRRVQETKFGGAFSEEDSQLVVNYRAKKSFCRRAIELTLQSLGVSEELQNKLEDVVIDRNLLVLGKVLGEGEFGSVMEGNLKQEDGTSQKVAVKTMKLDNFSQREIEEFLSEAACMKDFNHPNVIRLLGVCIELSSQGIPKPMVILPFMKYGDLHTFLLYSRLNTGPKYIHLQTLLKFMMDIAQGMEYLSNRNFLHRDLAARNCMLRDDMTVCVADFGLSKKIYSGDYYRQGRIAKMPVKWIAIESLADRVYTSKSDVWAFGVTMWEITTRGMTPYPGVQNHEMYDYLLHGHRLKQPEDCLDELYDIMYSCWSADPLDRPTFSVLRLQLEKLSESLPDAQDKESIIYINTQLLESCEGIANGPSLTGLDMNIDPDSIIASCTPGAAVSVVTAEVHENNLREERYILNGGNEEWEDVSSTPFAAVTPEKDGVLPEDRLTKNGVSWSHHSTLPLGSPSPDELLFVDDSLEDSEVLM
molecule,measurement,setting,value
CCOc1ccn(-c2ccc(F)cc2)c(=O)c1C(=O)Nc1ccc(Oc2ccnc(N)c2Cl)c(F)c1 [BMS-777607],concentrations effectively inhibiting ligand-dependent receptor activation (Mer),[1],30 to 300 nM
same,effect on infection deficiency of TAM TKO BMDCs (HIV-1 DNA level),[2]; TAM TKO-BMDCs,not further reduced
same,susceptibility to virus infection (HIV-1 DNA level) versus untreated WT BMDCs,[2]; WT-BMDCs,much less susceptible
"Gas6: recombinant mouse Gas6, pan-TAM ligand",potentiation of Gas6-induced Axl activation by bald HIV-1 virions versus VSVg-pseudotyped virions,"[3]; BMDCs, bald virions lacking viral glycoproteins, FIG. 6B",equally competent
same,virus-mediated potentiation of ligand-triggered signaling with MAV-1 (Axl),"[3]; WT-BMDCs, 1 nM mGas6 plus non-enveloped MAV-1",not seen
same,Axl activation by ligand alone,"[3]; WT-BMDCs, 0.25-1 nM mGas6, 5 min, FIG. 2B",rapid dose-dependent activation
same,effect of VSVg pseudotyped virus on stimulatory effect of ligand (Axl activation),"[3]; WT-BMDCs, ligand plus enveloped VSVg pseudotyped virus, dose-response shifted to lower concentrations",dramatically potentiated
"Protein S: purified human Protein S, TAM ligand (Mer and Tyro3 ligand)",virus-mediated potentiation of ligand-triggered signaling with MAV-1 (Mer),[4]; 1 nM hProS plus non-enveloped MAV-1,not seen
same,Mer activation by ligand alone,"[4]; 0.5-2 nM hProS, 5 min, FIG. 2A",rapid dose-dependent activation
same,effect of VSVg pseudotyped virus on stimulatory effect of ligand (Mer activation),"[4]; ligand plus enveloped VSVg pseudotyped virus, dose-response shifted to lower concentrations",dramatically potentiated
"Annexin V: a known PtdSer-binding protein (protein, UniProt P08758 2-320, looked up) Annexin A5: AQVLRGTVTDFPGFDERADAETLRKAMKGLGTDEESILTLLTSRSNAQRQEISAAFKTLFGRDLLDDLKSELTGKFEKLIVALMKPSRLYDAYELKHALKGAGTNEKVLTEIIASRTPEELRAIKQVYEEEYGSSLEDDVVGDTSGYYQRMLVVLLQANRDPDAGIDEAQVEQDAQALFQAGELKWGTDEEKFITIFGTRSVSHLRKVFDKYMTISGFQIEETIDRETSGNLEQLLLAVVKSIRSIPAYLAETLYYAMKGAGTDDHTLIRVMVSRSEIDLFNIRKEFRKNFATSLYSMIKGDTSGDYKKALLLLCGEDD",reduction in DENV infection,[5],~60%
same,effect on VSVg-HIV potentiation of the Gas6 dose-response curve for Axl activation,[6],significantly attenuated

# Reference: US20150164800A1, “REGULATING THE INTERACTION BETWEEN TAM LIGANDS AND LIPID MEMBRANES WITH EXPOSED PHOSPHATIDYL SERINE” (priority 2012, published 2015)
